± gives the uncertainty stated by the source.
Assay: amyloid nucleation score (Sup35N fusion, yeast selection) (log enrichment); library NNK3; higher = more nucleation; inactive = no reads after selection
Procedure, shortened: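 Using DiMSum, nucleation scores were taken as the log enrichment of output over input reads, centred on the mode score of non-aggregating sequences. The input and output reads came from Illumina sequencing of plasmid inserts, with sequences under 100 input reads excluded. The yeast were psi-negative, expressed Sup35N fused to peptides of 20 random codons, were induced with 100 μM copper sulfate for 24 hours, and were grown 7 days at 30°C on medium lacking adenine and uracil.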

**Q.** For GSPECPLVEV, which amyloid nucleation score is on record?
**A.** inactive

**Q.** With DVSLVGSVMRIELLEMCVSR as the substance, how does the amyloid nucleation score read?
**A.** inactive

**Q.** With KNLDKLVKMYH as the substance, how does the amyloid nucleation score read?
**A.** inactive

**Q.** With KISETGRCNSLCW as the substance, how does the amyloid nucleation score read?
**A.** inactive

**Q.** For AVYLGGGHKSCRRSRRWLVS, which amyloid nucleation score is on record?
**A.** inactive

**Q.** With QLSVNMYDCYDNGEHLRIGG as the substance, how does the amyloid nucleation score read?
**A.** inactive

**Q.** For AWASIDVSNAL, which amyloid nucleation score is on record?
**A.** inactive

**Q.** With AEFYERLPFDIPLHSYFNAW as the substance, how does the amyloid nucleation score read?
**A.** inactive

**Q.** With HVVHYDMFHDGLSLWDQEAR as the substance, how does the amyloid nucleation score read?
**A.** inactive

**Q.** For LYCGDSI, which amyloid nucleation score is on record?
**A.** inactive

**Q.** For IYNPRSNINQFPDTFEPDQM, which amyloid nucleation score is on record?
**A.** inactive

**Q.** Which amyloid nucleation score does the source give for TWWWDTKLVRRPCSRGWVTC here?
**A.** inactive

**Q.** Which amyloid nucleation score does the source give for PIRSNVAMIPDD here?
**A.** inactive

**Q.** Which amyloid nucleation score does the source give for SVYLTHSLFLRQLVGYLVHL here?
**A.** inactive

**Q.** With ICFFRGAARMNCLGYQGITR as the substance, how does the amyloid nucleation score read?
**A.** inactive

**Q.** With TLIRRVYVRRFYTGIEVGST as the substance, how does the amyloid nucleation score read?
**A.** inactive

**Q.** Which amyloid nucleation score does the source give for IIRISEFDSCGQTAW here?
**A.** inactive

**Q.** With YIYTFYSVSY as the substance, how does the amyloid nucleation score read?
**A.** 0.201 ± 0.17

**Q.** Which amyloid nucleation score does the source give for WFCLRTTVTPLDGFVLWYWE here?
**A.** inactive

**Q.** With PSSIKRVL as the substance, how does the amyloid nucleation score read?
**A.** -0.33 ± 0.8

**Q.** With IKVSECMSAYIVVFWYRMVV as the substance, how does the amyloid nucleation score read?
**A.** inactive

**Q.** For QTCSNYLNTFRSRRDWLVKG, which amyloid nucleation score is on record?
**A.** inactive

**Q.** For VCFNYDLFYMIRMGFEAVHI, which amyloid nucleation score is on record?
**A.** inactive

**Q.** For MKLEEELSYRFRRSWFYALW, which amyloid nucleation score is on record?
**A.** inactive

**Q.** For WCGGDYVLKNGKFALGVVGS, which amyloid nucleation score is on record?
**A.** inactive

**Q.** With RIFLIICKMYYFRNNRLFRM as the substance, how does the amyloid nucleation score read?
**A.** -0.508 ± 0.8

**Q.** With DTISGGEWDNEVRPYRILLL as the substance, how does the amyloid nucleation score read?
**A.** inactive

**Q.** For NYWSTQLSIFCCKDCATTSA, which amyloid nucleation score is on record?
**A.** 2.42 ± 0.063

**Q.** Which amyloid nucleation score does the source give for LLTHRFVAGFHRKAHSCCDS here?
**A.** inactive

**Q.** For SAKCTKEFYSNASKYFNSYL, which amyloid nucleation score is on record?
**A.** inactive

**Q.** Which amyloid nucleation score does the source give for AVIVVINNQTH here?
**A.** 2.78 ± 0.077

**Q.** Which amyloid nucleation score does the source give for YFCSCFRFSLNN here?
**A.** 2.8 ± 0.062

**Q.** With CRDKANVLAAVRRR as the substance, how does the amyloid nucleation score read?
**A.** inactive

**Q.** For FFCNLSSILRWGN, which amyloid nucleation score is on record?
**A.** 0.572 ± 0.18

**Q.** For VIGQGLCWGFSTVDIP, which amyloid nucleation score is on record?
**A.** inactive

**Q.** For SIQYIYFDASQMRIENSRSL, which amyloid nucleation score is on record?
**A.** 2.37 ± 0.059

**Q.** With KMFWLVTHRLN as the substance, how does the amyloid nucleation score read?
**A.** inactive

**Q.** For MTVHDIHYLS, which amyloid nucleation score is on record?
**A.** inactive

**Q.** Which amyloid nucleation score does the source give for EVPGHSGQYSGVDYGYVWLA here?
**A.** inactive

**Q.** Which amyloid nucleation score does the source give for YTVGIVTDWFVTSGNSFYK here?
**A.** inactive

**Q.** With FDDLSARVPLTVTLWPSHTA as the substance, how does the amyloid nucleation score read?
**A.** inactive

**Q.** For SMLAFDLGGCAQTVTGWW, which amyloid nucleation score is on record?
**A.** inactive

**Q.** With IPNDYAVAYAEGQLLVCELK as the substance, how does the amyloid nucleation score read?
**A.** inactive

**Q.** With FSGRFHMENTMYHTIYKIKS as the substance, how does the amyloid nucleation score read?
**A.** inactive

**Q.** For PYMIEVLRSDVNHDCSHMKW, which amyloid nucleation score is on record?
**A.** inactive

**Q.** For FWPMFSVVVRRRKFHSTPVH, which amyloid nucleation score is on record?
**A.** inactive

**Q.** With NWAGRLWLTV as the substance, how does the amyloid nucleation score read?
**A.** inactive

**Q.** With LQIPKPFAMKYTMFQRKQND as the substance, how does the amyloid nucleation score read?
**A.** inactive

**Q.** With IANCRIS as the substance, how does the amyloid nucleation score read?
**A.** 1.34 ± 0.094

**Q.** Which amyloid nucleation score does the source give for GGLVSCLSAARIGHHGASLE here?
**A.** inactive

**Q.** Which amyloid nucleation score does the source give for ARSDGLF here?
**A.** inactive

**Q.** With NFFVKTNRHGNVTTFGGR as the substance, how does the amyloid nucleation score read?
**A.** inactive

**Q.** For SKKPVEMTRNI, which amyloid nucleation score is on record?
**A.** inactive

**Q.** Which amyloid nucleation score does the source give for KYCNFTGVFWQTNIFTVVPM here?
**A.** 2.17 ± 0.087

**Q.** Which amyloid nucleation score does the source give for IIYILPLCPRV here?
**A.** inactive

**Q.** With IVYGPCYTLYVRCSVFSLSK as the substance, how does the amyloid nucleation score read?
**A.** 2.31 ± 0.063

**Q.** For VCVKPLCFLAHMYGKC, which amyloid nucleation score is on record?
**A.** inactive

**Q.** With ISQFLGKFTFCNSALHFFGA as the substance, how does the amyloid nucleation score read?
**A.** inactive

**Q.** For NNLEFQFNWRLEVGFC, which amyloid nucleation score is on record?
**A.** inactive

**Q.** Which amyloid nucleation score does the source give for MLPVIHIGVVSPRTFEQSSC here?
**A.** inactive

**Q.** Which amyloid nucleation score does the source give for VLTVVAKAWFPVFRPTWFLL here?
**A.** inactive

**Q.** With RESDMRSAWGSDVVCLLGDS as the substance, how does the amyloid nucleation score read?
**A.** 1.11 ± 0.15

**Q.** With NSVQAWPMIELEQPLKSLVQ as the substance, how does the amyloid nucleation score read?
**A.** inactive

**Q.** Which amyloid nucleation score does the source give for DNCCKLARVLAWFVFNRLNR here?
**A.** inactive

**Q.** With LKNSL as the substance, how does the amyloid nucleation score read?
**A.** inactive

**Q.** Which amyloid nucleation score does the source give for RLNCDCPAMHVCN here?
**A.** 2.35 ± 0.074

**Q.** With VQLLDLKILIIDSVDSKYVC as the substance, how does the amyloid nucleation score read?
**A.** inactive

**Q.** With TNIYKARL as the substance, how does the amyloid nucleation score read?
**A.** inactive

**Q.** With YEVPFSNASWRDGQMRCRCS as the substance, how does the amyloid nucleation score read?
**A.** inactive

**Q.** Which amyloid nucleation score does the source give for SIFPF here?
**A.** inactive

**Q.** For CKSNKCSAVMVLVA, which amyloid nucleation score is on record?
**A.** inactive

**Q.** With EMYGWINMIQWNLLCVSEII as the substance, how does the amyloid nucleation score read?
**A.** inactive

**Q.** For FYYDYSLCPCYYVGDYEHES, which amyloid nucleation score is on record?
**A.** 2.41 ± 0.056

**Q.** Which amyloid nucleation score does the source give for IQISYNWW here?
**A.** 0.75 ± 0.3

**Q.** For HYKVPWF, which amyloid nucleation score is on record?
**A.** inactive

**Q.** Which amyloid nucleation score does the source give for WETFPHSFINVLIWDSFELV here?
**A.** inactive

**Q.** Which amyloid nucleation score does the source give for HAFRVSLSLVVVCCVIWDTN here?
**A.** inactive

**Q.** With YCPRLRVRVCWFGTSSLDFQ as the substance, how does the amyloid nucleation score read?
**A.** 0.862 ± 0.16

**Q.** With LWPWFNCLRGRCGRIVCGWR as the substance, how does the amyloid nucleation score read?
**A.** inactive

**Q.** With RVSRADRGRCSSFYNLRVLS as the substance, how does the amyloid nucleation score read?
**A.** inactive

**Q.** Which amyloid nucleation score does the source give for KFFQTSLRTAIRLWKSAISC here?
**A.** inactive

From the supplement of paper PMC12042874
